Patent US20070122903A1, “AMNIOTIC FLUID DERIVED CELLS” (priority 2005, published 2007)

Tested on: cell line AFCA007 Clone A (AF-I)
Assay: Differentiation of cells into multiple endocrine lineages (collagen type I/matrigel transwell culture with growth factors)
Type: cell-based, human
Details: 14 days; for expression of HNF-3 beta: DMEM + 5% FBS
Method: Cells from the cell line AFCA007 Clone A (AF-I) at passage 8 were embedded in collagen type I (Becton Dickinson, CA) with 1% growth-factor reduced matrigel matrix (Becton Dickinson), and seeded into 6-well transwell insert at 5×10^5 cells per well. The bottom well was seeded with human aortic endothelial cells passage 6 (Cambrex. MD). Cells were cultured with DMEM medium supplemented with 5% FBS and growth factors, which includes Cyclopamine, bFGF, EGF, BMP4-7, Activin A, Exendin 4, FGF4, all-trans retinoic acid and γ-secretase inhibitors for 14 days. Cultures were fed every other day. […] Treatment of cells with BMPs at high concentration, 50 ng/ml, also up-regualted the GATA4 expression.

B1: Activin A: growth factor added to the differentiation medium (protein, UniProt P08476 311-426, looked up)
Inhibin beta A chain: GLECDGKVNICCKKQFFVSFKDIGWNDWIIAPSGYHANYCEGECPSHIAGTSGSSLSFHSTVINHYRMRGHSPFANLKSCCVPTKLRPMSMLYYDDGQNIIKKDIQNMIVEECGCS
modifications: Inhibin beta A chain
notes: growth factor added to the differentiation medium
  expression of HNF-3 beta: up-regulated

B2: FGF4: growth factor added to the differentiation medium (protein, UniProt P08620 31-206, looked up)
Fibroblast growth factor 4: APTAPNGTLEAELERRWESLVALSLARLPVAAQPKEAAVQSGAGDYLLGIKRLRRLYCNVGIGFHLQALPDGRIGGAHADTRDSLLELSPVERGVVSIFGVASRFFVAMSSKGKLYGSPFFTDECTFKEILLPNNYNAYESYKYPGMFIALSKNGKTKKGNRVSPTMKVTHFLPRL
50 ng/ml
  PDX-1 expression: up-regulation

B3: BMP4: bone morphogenic protein, growth factor added to the differentiation medium (protein, UniProt P12644 293-408, looked up)
Bone morphogenetic protein 4: SPKHHSQRARKKNKNCRRHSLYVDFSDVGWNDWIVAPPGYQAFYCHGDCPFPLADHLNSTNHAIVQTLVNSVNSSIPKACCVPTELSAISMLYLDEYDKVVLKNYQEMVVEGCGCR
  expression of HNF-3 beta: up-regulated
